Our source for the protein stability index values is the supplement of paper PMC10724198.

± gives the standard deviation of the averaged measurements.

In this series the test system is Saccharomyces cerevisiae. Description: protein stability index of tFT-peptide fusion (C-terminal peptide) (PSI (0-1 scale)); higher = more stable (slower turnover). Particulars: temperature: 30 C. As to the method:
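MPS profiling in S. cerevisiae of the yeast C-terminome library: the last 12 aa of each annotated ORF are fused to the C-terminus of a sfGFP-mCherry timer, after a GGGS linker. Cells are FACS-sorted into 8 mCherry/sfGFP bins and deep-sequenced. PSI runs from 0 (unstable) to 1 (stable); wild type and das1Δ backgrounds, two technical replicates each.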

The mark [1] stands for this setting: genetic background: das1 deletion.

Turning to FLDKNKKEQSDS [ECM9 C-terminal 12 aa], the protein stability index was 0.678 ± 0.029 under setting [1] and 0.771 ± 0.08 (genetic background: wild type).

Turning to FLLTASRGIAQF [YBR116C C-terminal 12 aa], the protein stability index by setting is: under setting [1], 0.6752 ± 0.0048; (genetic background: wild type) 0.74 ± 0.088.

In the case of FPCAGSAMGSLT [YMR103C C-terminal 12 aa], the protein stability index by setting is: under setting [1], 0.703 ± 0.011; (genetic background: wild type) 0.684 ± 0.01.

FPQLNGLLRLQH [YPR014C C-terminal 12 aa]: the protein stability index under setting [1] came out at 0.698 ± 0.015 and the protein stability index (genetic background: wild type) was determined as 0.681 ± 0.028.

In the case of FQPLLKKNQVGY [THI3 C-terminal 12 aa], the protein stability index was found to be 0.704 ± 0.028 under setting [1] and 0.693 ± 0.012 (genetic background: wild type).

As for FSLLSFISYFLL [YPS6 C-terminal 12 aa], the protein stability index by setting is: under setting [1], 0.665 ± 0.053; (genetic background: wild type) 0.379 ± 0.011.

FSMLANRITIGL [YJL175W C-terminal 12 aa]: the protein stability index worked out at 0.657 ± 0.016 under setting [1] and 0.64 ± 0.014 (genetic background: wild type).

As to FSSFKFLDTSYL [CKI1 C-terminal 12 aa], the protein stability index is, setting by setting: under setting [1], 0.748 ± 0.0096; (genetic background: wild type) 0.697 ± 0.048.

In the case of “FTPSYIPEPVLL [YOR161W-B C-terminal 12 aa]”, the protein stability index under setting [1] is 0.671 ± 0.012 and the protein stability index (genetic background: wild type) turned out to be 0.654 ± 0.013.

For FVAEAYLDEFVY [ARC19 C-terminal 12 aa], the protein stability index amounted to 0.71 ± 0.03 under setting [1] and 0.662 ± 0.02 (genetic background: wild type).

For the sequence FVKTIADTLSFS [PRR1 C-terminal 12 aa], the protein stability index is, setting by setting: under setting [1], 0.6997 ± 0.0036; (genetic background: wild type) 0.7061 ± 0.0011.

FVLPTWAAKELN [SPE3 C-terminal 12 aa]: the protein stability index by setting is: under setting [1], 0.7195 ± 0.0063; (genetic background: wild type) 0.69 ± 0.03.

Turning to FYVCYQLYHLVF [DPM1 C-terminal 12 aa], the protein stability index reads like this: under setting [1], 0.355 ± 0.012; (genetic background: wild type) 0.347 ± 0.022.

For the sequence GALREVIKLQKQ [SLX9 C-terminal 12 aa], the protein stability index came to 0.704 ± 0.035 under setting [1] and 0.656 ± 0.0067 (genetic background: wild type).

For GALVGYTIGAYI [GPI11 C-terminal 12 aa], the protein stability index under setting [1] is 0.666 ± 0.015 and the protein stability index (genetic background: wild type) amounted to 0.673 ± 0.055.

With GAPANKRPRRGL [SMD1 C-terminal 12 aa], the protein stability index is, setting by setting: under setting [1], 0.737 ± 0.026; (genetic background: wild type) 0.7365 ± 0.0044.

In the case of GDPIDLKEKKLN [RER2 C-terminal 12 aa], the protein stability index by setting is: under setting [1], 0.705 ± 0.031; (genetic background: wild type) 0.196 ± 0.032.

Regarding GDTLYEEFGISK [ARO8 C-terminal 12 aa], the protein stability index reads like this: under setting [1], 0.709 ± 0.0035; (genetic background: wild type) 0.712 ± 0.046.

In turn, GESSINSSTRHA [CTK2 C-terminal 12 aa] registered a protein stability index under setting [1] of 0.683 ± 0.015 and a protein stability index (genetic background: wild type) of 0.6853 ± 0.0058.

In turn, GEYLRDEDTLFT [NIP7 C-terminal 12 aa] displayed a protein stability index under setting [1] of 0.727 ± 0.011 and a protein stability index (genetic background: wild type) of 0.725 ± 0.013.

In the case of “GFRPAGATRFYS [YHR086W-A C-terminal 12 aa]”, the protein stability index reads like this: under setting [1], 0.6965 ± 0.0029; (genetic background: wild type) 0.691 ± 0.016.

For the sequence GGFFKKLAQLLK [MDG1 C-terminal 12 aa], the protein stability index reads like this: under setting [1], 0.704 ± 0.015; (genetic background: wild type) 0.719 ± 0.07.

With GGLHFHGESFAL [FRE8 C-terminal 12 aa], the protein stability index amounted to 0.699 ± 0.0096 under setting [1] and 0.712 ± 0.036 (genetic background: wild type).

Turning to GIGFTNTSKKIA [RCL1 C-terminal 12 aa], the protein stability index reads like this: under setting [1], 0.708 ± 0.027; (genetic background: wild type) 0.5373 ± 0.0012.

In the case of GINLNISYSSGK [ULI1 C-terminal 12 aa], the protein stability index stood at 0.706 ± 0.012 under setting [1] and 0.681 ± 0.0044 (genetic background: wild type).

GIPNFKLKVTQI [GAB1 C-terminal 12 aa]: the protein stability index is 0.6896 ± 0.0036 under setting [1] and 0.706 ± 0.041 (genetic background: wild type).

With GKDRPSRFNSKK [TEX1 C-terminal 12 aa], the protein stability index by setting is: under setting [1], 0.693 ± 0.011; (genetic background: wild type) 0.667 ± 0.038.

Regarding GKEVRKLRPENQ [ILV5 C-terminal 12 aa], the protein stability index by setting is: under setting [1], 0.691 ± 0.014; (genetic background: wild type) 0.654 ± 0.024.

Regarding GKGKKKMVVLEW [ETR1 C-terminal 12 aa], the protein stability index was found to be 0.692 ± 0.026 under setting [1] and 0.712 ± 0.018 (genetic background: wild type).

With GKRRMNPGPSVQ [RPS30A C-terminal 12 aa], the protein stability index by setting is: under setting [1], 0.696 ± 0.0085; (genetic background: wild type) 0.6758 ± 0.0052.

For the sequence GKSHPFHSSDRY [YJL211C C-terminal 12 aa], the protein stability index reads like this: under setting [1], 0.6884 ± 0.0033; (genetic background: wild type) 0.699 ± 0.023.

As for GLGDFGDRYYCV [FUR1 C-terminal 12 aa], the protein stability index by setting is: under setting [1], 0.7105 ± 0.0059; (genetic background: wild type) 0.697 ± 0.007.

As to “GLLRKGLVKRDI [YHR193C-A C-terminal 12 aa]”, the protein stability index runs as follows: under setting [1], 0.6883 ± 0.0029; (genetic background: wild type) 0.677 ± 0.033.

GLVGQHQGGGSM [RTC5 C-terminal 12 aa]: the protein stability index runs as follows: under setting [1], 0.68 ± 0.0094; (genetic background: wild type) 0.6633 ± 0.0038.

GNISLLYSQGRL [RSC6 C-terminal 12 aa]: the protein stability index is, setting by setting: under setting [1], 0.723 ± 0.013; (genetic background: wild type) 0.714 ± 0.053.

As to GNLSLDWLNLNL [GAT1 C-terminal 12 aa], the protein stability index reads like this: under setting [1], 0.735 ± 0.01; (genetic background: wild type) 0.7689 ± 0.0048.

As to GNNKKKRSVKRE [PBN1 C-terminal 12 aa], the protein stability index turned out to be 0.688 ± 0.013 under setting [1] and 0.717 ± 0.036 (genetic background: wild type).

As to GPEPPRYDEISS [CSR2 C-terminal 12 aa], the protein stability index is 0.705 ± 0.058 under setting [1] and 0.635 ± 0.025 (genetic background: wild type).

Take GPSIIMTLYLTL [ARE1 C-terminal 12 aa]: the protein stability index came out at 0.496 ± 0.021 under setting [1] and 0.5045 ± 0.0024 (genetic background: wild type).

As for GTFPRNERYYHK [PHA2 C-terminal 12 aa], the protein stability index is, setting by setting: under setting [1], 0.71 ± 0.0099; (genetic background: wild type) 0.78 ± 0.021.

Regarding GTLVLGTYLLAQ [SHH3 C-terminal 12 aa], the protein stability index was 0.612 ± 0.027 under setting [1] and 0.639 ± 0.037 (genetic background: wild type).

On to GVGRIITQPQRY [HUA1 C-terminal 12 aa], for which the protein stability index is, setting by setting: under setting [1], 0.7038 ± 0.0018; (genetic background: wild type) 0.701 ± 0.043.

With GWYVGRYYRITR [IMD1 C-terminal 12 aa], the protein stability index was 0.714 ± 0.017 under setting [1] and 0.6944 ± 0.0055 (genetic background: wild type).

On to GYETAIHYLRMY [TPC1 C-terminal 12 aa], for which the protein stability index stood at 0.701 ± 0.013 under setting [1] and 0.3927 ± 0.0037 (genetic background: wild type).

As to HAYVIEKLPDVF [FCF1 C-terminal 12 aa], the protein stability index came to 0.719 ± 0.0048 under setting [1] and 0.698 ± 0.016 (genetic background: wild type).

As to “HCLSLCTIQKMI [YOR231C-A C-terminal 12 aa]”, the protein stability index was found to be 0.7075 ± 0.0048 under setting [1] and 0.159 ± 0.01 (genetic background: wild type).

With HELESINSGGAW [YMR31 C-terminal 12 aa], the protein stability index is, setting by setting: under setting [1], 0.702 ± 0.0072; (genetic background: wild type) 0.689 ± 0.0016.

Take HIDIPDFSKWDV [SUL1 C-terminal 12 aa]: the protein stability index runs as follows: under setting [1], 0.7412 ± 0.0047; (genetic background: wild type) 0.718 ± 0.016.

Take “HKGSHFYIQLPI [YAL034C-B C-terminal 12 aa]”: the protein stability index is, setting by setting: under setting [1], 0.7079 ± 0.0061; (genetic background: wild type) 0.677 ± 0.0077.

Take HKGSTLDIMSID [QNS1 C-terminal 12 aa]: the protein stability index was 0.72 ± 0.0096 under setting [1] and 0.667 ± 0.025 (genetic background: wild type).

Consider HKSLKLAKKDKK [AGE1 C-terminal 12 aa], for which the protein stability index by setting is: under setting [1], 0.6837 ± 0.0037; (genetic background: wild type) 0.738 ± 0.13.

Consider HKVIAVGRIACQ [SKI7 C-terminal 12 aa], for which the protein stability index was found to be 0.5897 ± 0.0016 under setting [1] and 0.611 ± 0.016 (genetic background: wild type).

HPRLCVFSCMMI [YJR128W C-terminal 12 aa]: the protein stability index is 0.6901 ± 0.0059 under setting [1] and 0.67 ± 0.035 (genetic background: wild type).

Turning to HQVERKAVDIVL [YPR096C C-terminal 12 aa], the protein stability index by setting is: under setting [1], 0.691 ± 0.016; (genetic background: wild type) 0.712 ± 0.09.

Take HRDIVSAGSLYL [MTR4 C-terminal 12 aa]: the protein stability index is 0.723 ± 0.034 under setting [1] and 0.7 ± 0.036 (genetic background: wild type).

Consider HTSSKEIDLLSF [ENT3 C-terminal 12 aa], for which the protein stability index by setting is: under setting [1], 0.721 ± 0.026; (genetic background: wild type) 0.7104 ± 0.0067.

Regarding IAAFVVAVLFAF [PRY3 C-terminal 12 aa], the protein stability index under setting [1] was 0.213 ± 0.012 and the protein stability index (genetic background: wild type) is 0.205 ± 0.012.

For ICRVAIWSAERI [CAT5 C-terminal 12 aa], the protein stability index is, setting by setting: under setting [1], 0.693 ± 0.015; (genetic background: wild type) 0.658 ± 0.034.

Turning to IDDINNDKWLVI [PSK1 C-terminal 12 aa], the protein stability index reads like this: under setting [1], 0.725 ± 0.001; (genetic background: wild type) 0.688 ± 0.041.

Consider IDNPEACEMCSG [RNR1 C-terminal 12 aa], for which the protein stability index reads like this: under setting [1], 0.702 ± 0.022; (genetic background: wild type) 0.694 ± 0.027.

Take IEKADIVQQAIR [SLP1 C-terminal 12 aa]: the protein stability index runs as follows: under setting [1], 0.691 ± 0.008; (genetic background: wild type) 0.66 ± 0.033.

As for IFKKIRLLLHVN [MCP1 C-terminal 12 aa], the protein stability index runs as follows: under setting [1], 0.615 ± 0.013; (genetic background: wild type) 0.2 ± 0.03.

IIFGHDNLWTVR [ALG7 C-terminal 12 aa]: the protein stability index is 0.742 ± 0.022 under setting [1] and 0.767 ± 0.041 (genetic background: wild type).

Consider IIQSYINLLEEN [NKP2 C-terminal 12 aa], for which the protein stability index was found to be 0.708 ± 0.017 under setting [1] and 0.756 ± 0.059 (genetic background: wild type).

As for IKAAIDRVDHSL [YKR018C C-terminal 12 aa], the protein stability index came out at 0.6778 ± 0.0045 under setting [1] and 0.692 ± 0.041 (genetic background: wild type).

In turn, IKLNKKKVKLST [HHO1 C-terminal 12 aa] showed a protein stability index under setting [1] of 0.664 ± 0.0086 and a protein stability index (genetic background: wild type) of 0.6099 ± 0.0033.

Turning to IKQRELNAADKC [MAL11 C-terminal 12 aa], the protein stability index by setting is: under setting [1], 0.696 ± 0.0096; (genetic background: wild type) 0.6741 ± 0.0048.
